Target: GST-TCF-4 DBD (UniProt Q9NQB0 265-496)
Assay: EMSA; EMSA, 0.5 ug GST-TCF-4 DBD or GST; buffer, salt, pH and temperature not stated (as in Hlubek et al 2004)
Settings: protein: recombinant; tags: GST; label: end label (probe); blunt

Chain of GST-TCF-4 DBD (Q9NQB0 265-496): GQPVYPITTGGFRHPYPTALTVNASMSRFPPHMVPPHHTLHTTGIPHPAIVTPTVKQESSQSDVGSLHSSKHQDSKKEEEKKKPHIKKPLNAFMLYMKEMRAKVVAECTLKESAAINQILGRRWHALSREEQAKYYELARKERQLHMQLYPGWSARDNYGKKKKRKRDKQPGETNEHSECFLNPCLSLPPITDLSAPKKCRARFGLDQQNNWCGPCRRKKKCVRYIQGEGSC

| Binder | binding result |
| --- | --- |
| securin-mutTBE (mt) (dsDNA) DNA 1: ATAAATCACTGCCAAAGGATAGAATTT DNA 2: AAATTCTATCCTTTGGCAGTGATTTAT | no binding |
| securin-TBE (wt) (dsDNA) DNA 1: ATAAATCACTATCAAAGGATAGAATTT DNA 2: AAATTCTATCCTTTGATAGTGATTTAT | binds |

Source: article PMC2361298, “Securin (hPTTG1) expression is regulated by β-catenin/TCF in human colorectal carcinoma”
